doi:10.1101/2021.09.29.462438

Target: N-terminal soluble domain of Bacteroides fragilis FeoAB fusion protein (BfNFeoAB) (Bacteroides fragilis)
Assay: SEC

stoichiometry N: 3
Substance: N-terminal soluble domain of Bacteroides fragilis FeoAB fusion protein (BfNFeoAB) (domain or fragment)
